Laboratory results as given in paper PMC4830213, “Signaling mechanism by the Staphylococcus aureus two-component system LytSR: role of acetyl phosphate in bypassing the cell membrane electrical potential sensor LytS” (F1000Research, 2016).

Biological target: phosphorylated receiver domain of LytR (LytR^N-P) (Staphylococcus aureus strain Mu50) (UniProt P60609)
Assay: native gel or EMSA; LytR^N and LytR^N-P (phosphorylated by acetyl phosphate) at 10, 20 and 40 µM on native-PAGE (10% in the methods, 15% in the legend), buffer kept at 4°C, Coomassie stain

- stoichiometry N: 2
Substance: phosphorylated receiver domain of LytR (LytR^N-P) (from UniProt P60609 1-134) (domain or fragment)
